Experimental data reported in patent publication US20210292396A1.

What was measured:
Test in all cases: cell-based or functional assay
[1] = biological target: HIV Env of isolate 25710-2.43 (HIV)
[2] = biological target: Env of HIV isolate CAP45.G3 (clade C) (HIV)
[3] = biological target: Env of HIV isolate 16845-2.22 (clade C) (HIV)
[4] = biological target: Env of HIV isolate BX08.16 (clade B) (HIV)
[5] = biological target: Env of HIV isolate CNE8 (clade AE) (HIV)
[6] = biological target: Env of HIV isolate CH117.4 (clade BC) (HIV)
[7] = biological target: HIV Env of isolate CNE20 (HIV)
[8] = biological target: Env of HIV isolate CM244.ec1 (clade AE) (HIV)
[9] = biological target: HIV Env of isolate CNE40 (HIV)
[10] = biological target: Env of HIV isolate HT593.1 (clade B) (HIV)
[11] = biological target: Env of HIV isolate Q461.e2 (clade AD) (HIV)
[12] = biological target: Env of HIV isolate TH976.17 (clade AE) (HIV)
[13] = biological target: 208-member cross-clade virus panel
[14] = biological target: HIV Env of isolate ZM197.7 (HIV)
[15] = biological target: Env of HIV isolate UG037.8 (clade A) (HIV)
[16] = biological target: Env of HIV isolate QH0515.01 (clade B) (HIV)
[17] = biological target: Env of HIV isolate UG024.2 (clade D) (HIV)
[18] = biological target: Env of HIV isolate T250-4 (clade AG) (HIV)
[19] = biological target: Env of HIV isolate BI369.9A (clade A) (HIV)
[20] = biological target: HIV Env of isolate UG024.2 (HIV)
[21] = biological target: Env of HIV isolate 6095.v1.c10 (clade ACD) (HIV)
[22] = biological target: Env of HIV isolate UG021.16 (clade D) (HIV)
[23] = biological target: HIV Env of isolate 6644.v2.c33 (HIV)
[24] = biological target: Env of HIV isolate CNE19 (clade BC) (HIV)
[25] = biological target: Env of HIV isolate X2278.C2.B6 (clade B) (HIV)
[26] = biological target: Env of HIV isolate CNE21 (clade BC) (HIV)
[27] = biological target: HIV Env of isolate CE703010217.B6 (HIV)
[28] = biological target: Env of HIV isolate BJOX010000.06.2 (clade AE) (HIV)
[29] = biological target: HIV Env of isolate ZA012.29 (HIV)
[30] = biological target: HIV Env of isolate 288.38 (HIV)
[31] = biological target: Env of HIV isolate CNE56 (clade AE) (HIV)
[32] = biological target: HIV Env of isolate 0013095-2.11 (HIV)
[33] = biological target: HIV Env of isolate 57128.vrc15 (HIV)
[34] = biological target: HIV Env of isolate 3637.v5.c3 (HIV)
[35] = biological target: HIV Env of isolate 0077.v1.c16 (HIV)
[36] = biological target: Env of HIV isolate 7165.18 (clade B) (HIV)
[37] = biological target: Env of HIV isolate KER2018.11 (clade A) (HIV)
[38] = biological target: Env of HIV isolate SO18.18 (clade C) (HIV)
[39] = biological target: Env of HIV isolate 286.36 (clade C) (HIV)
[40] = biological target: Env of HIV isolate R1166.C1 (clade AE) (HIV)
[41] = biological target: Env of HIV isolate X2088.c9 (clade G) (HIV)
[42] = biological target: Env of HIV isolate C3347.c11 (clade AE) (HIV)
[43] = biological target: Env of HIV isolate T257-31 (clade AG) (HIV)

B1: ePGT121.18.17 (ePGT121.18.H17 VH and ePGT121.17.L1 VL) (antibody, V domains shown)
VH: QMQLQESGPGLVKPGETLSLTCSVSGASISSSYWSWLRETPGKGLEWIGYTHHSGDTNYAPSLKSRVTIGLDPSKNQVSLSLTSVTAADTAVYYCARTLHGRRIYGVVAFNEYYTYFYWPTWGKGTQVTVSS
VL: SDISVAPGETVRITCGGESIGSRAVQWYQHRPGQAPRLIIYNNQDRPPGIPERFSGSPDIDFGTTATLTISNVEAGDEATYYCHIWDSRRPTNWELGPGTTLTVL
- IC80, pseudovirus neutralization [1]: 0.026 µg/mL
- IC50, pseudovirus neutralization [2]: 8.91 µg/mL
- IC50, pseudovirus neutralization [3]: 0.232 µg/mL
- IC50, pseudovirus neutralization [4]: 0.004 µg/mL
- IC50, pseudovirus neutralization [5]: > 50 µg/mL
- IC50, pseudovirus neutralization [6]: > 50 µg/mL
- IC80, pseudovirus neutralization [7]: 0.005 µg/mL
- IC50, pseudovirus neutralization [8]: 7.23 µg/mL
- IC80, pseudovirus neutralization [9]: 0.13 µg/mL
- IC50, pseudovirus neutralization [10]: 0.014 µg/mL
- IC50, pseudovirus neutralization [11]: > 50 µg/mL
- IC50, pseudovirus neutralization [12]: > 50 µg/mL
- % vs Neutralized, IC50 < 0.01 ug/ml [13]: 40%
- % vs Neutralized, IC50 < 0.1 ug/ml [13]: 61%
- % vs Neutralized, IC50 < 1.0 ug/ml [13]: 69%
- % vs Neutralized, IC50 < 10 ug/ml [13]: 74%
- % vs Neutralized, IC50 < 50 ug/ml [13]: 76%
- % vs Neutralized, IC80 < 0.01 ug/ml [13]: 14.4%
- % vs Neutralized, IC80 < 0.1 ug/ml [13]: 53.4%
- % vs Neutralized, IC80 < 1.0 ug/ml [13]: 63.5%
- % vs Neutralized, IC80 < 10 ug/ml [13]: 67.8%
- % vs Neutralized, IC80 < 50 ug/ml [13]: 70.7%
- Geometric Mean (IC50) [13]: 0.0202 µg/mL
- Geometric Mean IC80 [13]: 0.0443 µg/mL
- Median IC50 [13]: 0.009 µg/mL
- Median IC80 [13]: 0.02 µg/mL
- Total VS Neutralized, IC50 < 0.01 ug/ml (viruses of 208) [13]: 83
- Total VS Neutralized, IC50 < 0.1 ug/ml (viruses of 208) [13]: 126
- Total VS Neutralized, IC50 < 1.0 ug/ml (viruses of 208) [13]: 143
- Total VS Neutralized, IC50 < 10 ug/ml (viruses of 208) [13]: 154
- Total VS Neutralized, IC50 < 50 ug/ml (viruses of 208) [13]: 158
- Total VS Neutralized, IC80 < 0.01 ug/ml (viruses of 208) [13]: 30
- Total VS Neutralized, IC80 < 0.1 ug/ml (viruses of 208) [13]: 111
- Total VS Neutralized, IC80 < 1.0 ug/ml (viruses of 208) [13]: 132
- Total VS Neutralized, IC80 < 10 ug/ml (viruses of 208) [13]: 141
- Total VS Neutralized, IC80 < 50 ug/ml (viruses of 208) [13]: 147
- IC80, pseudovirus neutralization [14]: > 50 µg/mL
- IC50, pseudovirus neutralization [15]: 0.009 µg/mL
- IC50, pseudovirus neutralization [16]: 0.035 µg/mL
- IC50, pseudovirus neutralization [17]: 0.429 µg/mL
- IC50, pseudovirus neutralization [18]: 0.002 µg/mL
- IC50, pseudovirus neutralization [19]: 0.004 µg/mL
- IC80, pseudovirus neutralization [20]: > 50 µg/mL
- IC50, pseudovirus neutralization [21]: 0.045 µg/mL
- IC50, pseudovirus neutralization [22]: 0.013 µg/mL
- IC80, pseudovirus neutralization [23]: 0.015 µg/mL
- IC50, pseudovirus neutralization [24]: 0.003 µg/mL
- IC50, pseudovirus neutralization [25]: 0.003 µg/mL
- IC50, pseudovirus neutralization [26]: 0.002 µg/mL
- IC80, pseudovirus neutralization [27]: 0.016 µg/mL
- IC50, pseudovirus neutralization [28]: > 50 µg/mL
- IC80, pseudovirus neutralization [29]: 0.014 µg/mL
- IC80, pseudovirus neutralization [30]: 0.003 µg/mL
- IC50, pseudovirus neutralization [31]: > 50 µg/mL
- IC80, pseudovirus neutralization [32]: 13.4 µg/mL
- IC80, pseudovirus neutralization [33]: 0.038 µg/mL
- IC80, pseudovirus neutralization [34]: > 50 µg/mL
- IC80, pseudovirus neutralization [35]: > 50 µg/mL
- IC50, pseudovirus neutralization [36]: 0.006 µg/mL
- IC50, pseudovirus neutralization [37]: > 50 µg/mL
- IC50, pseudovirus neutralization [38]: 0.004 µg/mL
- IC50, pseudovirus neutralization [39]: 0.003 µg/mL
- IC50, pseudovirus neutralization [40]: > 50 µg/mL
- IC50, pseudovirus neutralization [41]: 0.006 µg/mL
- IC50, pseudovirus neutralization [42]: > 50 µg/mL
- IC50, pseudovirus neutralization [43]: > 50 µg/mL

B2: ePGT121.15 (ePGT121.15.H6 VH and ePGT121.15.L1 VL) (antibody, V domains shown)
VH: QMQLQESGPGLVKPGETLSLTCSVSGASISSSYWSWLRETPGKGLEWIGYTHHSGDTNYAPSLKSRVHLGLHPSKNQVSLSLTSVTAADTAVYYCARTLHGRRIYGVVAFNEFFTYFYWEVWGKGTQVTVSS
VL: SDISVAPGETVRISCGGESIGSRAVQWYQHRAGQAPKLIIYNNQDRPPGIPERFSGSPDIDFGTTATLTITNVEAGDEATYYCHIWDSRRPTNWVFGGGTTLTVL
- IC80, pseudovirus neutralization [1]: 0.021 µg/mL
- IC50, pseudovirus neutralization [2]: 2.25 µg/mL
- IC50, pseudovirus neutralization [3]: 0.077 µg/mL
- IC50, pseudovirus neutralization [4]: 0.004 µg/mL
- IC50, pseudovirus neutralization [5]: > 50 µg/mL
- IC50, pseudovirus neutralization [6]: > 50 µg/mL
- IC80, pseudovirus neutralization [7]: 0.005 µg/mL
- IC50, pseudovirus neutralization [8]: 7.02 µg/mL
- IC80, pseudovirus neutralization [9]: 0.082 µg/mL
- IC50, pseudovirus neutralization [10]: 0.008 µg/mL
- IC50, pseudovirus neutralization [11]: > 50 µg/mL
- IC50, pseudovirus neutralization [12]: > 50 µg/mL
- % vs Neutralized, IC50 < 0.01 ug/ml [13]: 49%
- % vs Neutralized, IC50 < 0.1 ug/ml [13]: 63%
- % vs Neutralized, IC50 < 1.0 ug/ml [13]: 70%
- % vs Neutralized, IC50 < 10 ug/ml [13]: 75%
- % vs Neutralized, IC50 < 50 ug/ml [13]: 77%
- % vs Neutralized, IC80 < 0.01 ug/ml [13]: 26.9%
- % vs Neutralized, IC80 < 0.1 ug/ml [13]: 56.2%
- % vs Neutralized, IC80 < 1.0 ug/ml [13]: 63.5%
- % vs Neutralized, IC80 < 10 ug/ml [13]: 70.2%
- % vs Neutralized, IC80 < 50 ug/ml [13]: 72.6%
- Geometric Mean (IC50) [13]: 0.0148 µg/mL
- Geometric Mean IC80 [13]: 0.0351 µg/mL
- Median IC50 [13]: 0.0055 µg/mL
- Median IC80 [13]: 0.015 µg/mL
- Total VS Neutralized, IC50 < 0.01 ug/ml (viruses of 208) [13]: 101
- Total VS Neutralized, IC50 < 0.1 ug/ml (viruses of 208) [13]: 130
- Total VS Neutralized, IC50 < 1.0 ug/ml (viruses of 208) [13]: 145
- Total VS Neutralized, IC50 < 10 ug/ml (viruses of 208) [13]: 156
- Total VS Neutralized, IC50 < 50 ug/ml (viruses of 208) [13]: 160
- Total VS Neutralized, IC80 < 0.01 ug/ml (viruses of 208) [13]: 56
- Total VS Neutralized, IC80 < 0.1 ug/ml (viruses of 208) [13]: 117
- Total VS Neutralized, IC80 < 1.0 ug/ml (viruses of 208) [13]: 132
- Total VS Neutralized, IC80 < 10 ug/ml (viruses of 208) [13]: 146
- Total VS Neutralized, IC80 < 50 ug/ml (viruses of 208) [13]: 151
- IC80, pseudovirus neutralization [14]: > 50 µg/mL
- IC50, pseudovirus neutralization [15]: 0.004 µg/mL
- IC50, pseudovirus neutralization [16]: 0.014 µg/mL
- IC50, pseudovirus neutralization [17]: 0.516 µg/mL
- IC50, pseudovirus neutralization [18]: 0.002 µg/mL
- IC50, pseudovirus neutralization [19]: 0.002 µg/mL
- IC80, pseudovirus neutralization [20]: 4.72 µg/mL
- IC50, pseudovirus neutralization [21]: 0.019 µg/mL
- IC50, pseudovirus neutralization [22]: 0.006 µg/mL
- IC80, pseudovirus neutralization [23]: 0.008 µg/mL
- IC50, pseudovirus neutralization [24]: 0.004 µg/mL
- IC50, pseudovirus neutralization [25]: 0.002 µg/mL
- IC50, pseudovirus neutralization [26]: 0.002 µg/mL
- IC80, pseudovirus neutralization [27]: 0.012 µg/mL
- IC50, pseudovirus neutralization [28]: > 50 µg/mL
- IC80, pseudovirus neutralization [29]: 0.012 µg/mL
- IC80, pseudovirus neutralization [30]: 0.005 µg/mL
- IC50, pseudovirus neutralization [31]: > 50 µg/mL
- IC80, pseudovirus neutralization [32]: 11.9 µg/mL
- IC80, pseudovirus neutralization [33]: 0.026 µg/mL
- IC80, pseudovirus neutralization [34]: > 50 µg/mL
- IC80, pseudovirus neutralization [35]: > 50 µg/mL
- IC50, pseudovirus neutralization [36]: 0.003 µg/mL
- IC50, pseudovirus neutralization [37]: > 50 µg/mL
- IC50, pseudovirus neutralization [38]: 0.004 µg/mL
- IC50, pseudovirus neutralization [39]: 0.002 µg/mL
- IC50, pseudovirus neutralization [40]: > 50 µg/mL
- IC50, pseudovirus neutralization [41]: 0.003 µg/mL
- IC50, pseudovirus neutralization [42]: > 50 µg/mL
- IC50, pseudovirus neutralization [43]: > 50 µg/mL
